# Assays:
# [1] = target: β-lactoglobulin (bovine) (UniProt P02754); assay: ITC; LF (0.25 mM, syringe) injected into βLG (0.1 mM, cell); 10 mM MES pH 5.5, no added NaCl, 25 °C; fitted with PyTC
# [2] = target: β-lactoglobulin (bovine) (UniProt P02754); assay: ITC; LF (0.25 mM, syringe) injected into βLG (0.1 mM, cell); 10 mM MES pH 5.5, 2.5 mM added NaCl, 25 °C; fitted with PyTC
# [3] = target: β-lactoglobulin (bovine) (UniProt P02754); assay: co-sedimentation + other: turbidity; LF-βLG mixtures (total 0.55 mM) prepared at 0, 100, 200 or 400 mM NaCl and desalted by dialysis (24 h) against 10 mM MES pH 5.5, room temperature; coacervate yield after centrifugation at 28,000 g and HPLC of the supernatant
# [4] = target: β-lactoglobulin (bovine) (UniProt P02754); assay: ITC; LF (0.25 mM, syringe) injected into βLG (0.1 mM, cell); 10 mM MES pH 5.5, 15 mM added NaCl, 25 °C; fitted with PyTC
# [5] = target: β-lactoglobulin (bovine) (UniProt P02754); assay: ITC; LF (0.25 mM, syringe) injected into βLG (0.1 mM, cell); 10 mM MES pH 5.5, 20 mM added NaCl, 25 °C; fitted with PyTC
# [6] = target: β-lactoglobulin (bovine) (UniProt P02754); assay: ITC; LF (0.25 mM, syringe) injected into βLG (0.1 mM, cell); 10 mM MES pH 5.5, 5 mM added NaCl, 25 °C; fitted with PyTC
substance,measurement,setting,value
lactoferrin (natural protein),Ka,[1],421000 M⁻¹
same,dH,[1],-18.8 kcal/mol
same,Ka,[2],972000 M⁻¹
same,dH,[2],-24.7 kcal/mol
same,coacervate yield,[3],55 to 65%
same,Ka,[4],84700 M⁻¹
same,dH,[4],-12.1 kcal/mol
same,Ka,[5],33200 M⁻¹
same,dH,[5],-8.94 kcal/mol
same,Ka,[6],275000 M⁻¹
same,dH,[6],-14.6 kcal/mol

# — article PMC10001252
